Results taken from article PMC10383195, “Interactions of the Kv1.1 Channel with Peptide Pore Blockers: A Fluorescent Analysis on Mammalian Cells” (Membranes, 2023).
Bridge positions count the residues as written; N and C are the ends. Peptide text beside a SMILES is read from it.

What was measured:
[1] = target: T1, mKate2-tagged human Kv1.1 (S369T) channel (K-Kv1.1) (Homo sapiens, UniProt Q09470, S369T); experiment: Competitive binding of peptide pore blocker and A-HgTx to K-Kv1.1 on the plasma membrane of Neuro2a cells (confocal microscopy); conditions: for Kd: complete medium (closed channels), Neuro2a cells, A-HgTx 2 nM, 60 min, Cheng-Prusoff from DC50, mean ± SEM, two independent experiments, SEM, read-out: Kap (apparent dissociation constant of complex with K-Kv1.1)
T1 construct: these fragments were combined and amplified using terminal primers to obtain the whole mutated gene; expressed in transfected cells; host or cells: mouse neuroblastoma Neuro2a cells, transient transfection with pmKate2-KCNA1m1
Experimental: To analyze the binding of A-HgTx, A-HgTx (0.25–4 nM) was added to cells in a complete medium for 60 min. To analyze competitive binding, A-HgTx (2 nM), together with the selected peptide (0.05–160 nM), was added to cells in a complete medium for 60 min.
To compare ligand binding with closed and open channels, ligands were added to cells (60 min, 37 °C) in a buffer (20 mM HEPES pH 7.4, 0.9 mM CaCl2, 0.5 mM MgCl2, 0.1% BSA) supplemented with 4 mM KCl and 150 mM NaCl (Na^+ buffer) or with 150 mM KCl (K^+ buffer).
The fluorescence of the K-Kv1.1 and K-Kv1.1wt channels was excited at 561 nm and detected in the 650–700 nm region. A-HgTx fluorescence was excited at 488 nm and detected in the 495–535 nm region. Sequential scanning was used to measure the cellular distributions of A-HgTx and mKate2 fluorescence in order to avoid interference of mKate2 fluorescence with cellular autofluorescence excited at 488 nm.
Quantitative analysis of the interaction of A-HgTx with K-Kv1.1 was carried out in accordance with the procedure developed previously for A-HgTx and the fluorescently labeled Kv1.3 channel. Briefly, the regions of interest with K-Kv1.1 on the plasma membrane were selected in the confocal images and used to create binary (0;1) masks that described the membranous distribution of K-Kv1.1. The confocal images of K-Kv1.1 and A-HgTx were multiplied by the corresponding mask, and the average fluorescence intensities of A-HgTx (Ili) and K-Kv1.1 (Ici) corrected for the background signal were calculated for each i-cell. Ratio Ri = Ili/Ici was calculated and averaged over 15–20 cells to obtain the Rav value and the standard deviation.
To analyze the competitive binding of the studied peptide pore blocker and A-HgTx to K-Kv1.1 on the cellular membrane, Rav data were plotted depending on the blocker concentration (C) at the constant A-HgTx concentration (L) and fitted with the following equation:Rav(C) = Rav0/(1 + C/DC50)(3) where DC50 is the blocker concentration displacing 50% of A-HgTx from the complex with K-Kv1.1, and Rav0 is Rav at C = 0.
The apparent dissociation constant (Kap) of the complex between the studied blocker and the K-Kv1.1 channel was calculated using the Cheng–Prusoff equation:Kap = DC50/(1 + L/Kd).(4)
Two independent experiments were performed, and the Kav data were averaged and presented as mean ± SEM. Fifteen to twenty-five treated cell images were the average value for each point on the curves of A-HgTx binding to the K-Kv1.1 channel.

[2] = target: T2, K-Kv1.1 channel (hKv1.1S369T with mKate2) (Homo sapiens, UniProt Q09470, S369T); experiment: Whole-cell patch-clamp of currents through K-Kv1.1 in Neuro2a cells; assay type: cell-based; conditions: HgTx1 2 nM, applied voltage from −10 to 70 mV, n = 10
T2 construct: these fragments were combined and amplified using terminal primers to obtain the whole mutated gene; expressed in transfected cells; host or cells: mouse neuroblastoma Neuro2a cells, transient transfection with pmKate2-KCNA1m1
Experimental: Membrane ion currents through the K-Kv1.1 channel were recorded at room temperature by the patch-clamp technique using the standard whole-cell configuration as described earlier.
Briefly, Neuro2a cells attached to coverslips (10 mm in diameter) pre-coated with poly-D-lysine were immersed in a buffer (140 mM NaCl, 2.8 mM KCl, 2 mM MgCl2, 2 mM CaCl2, 10 mM glucose, 10 mM HEPES, pH 7.4) and perfused continuously. Micropipettes with a tip resistance of 6–8 MΩ were filled with a pipette solution containing 140 mM KCl, 6 mM CaCl2, 2 mM MgCl2, 2 mM MgATP, 0.4 mM NaGTP, 10 mM HEPES, 20 mM BAPTA/KOH (pH 7.3). The patches were routinely held at a holding potential of −40 mV. The potential was changed from −70 to +70 mV (20 mV step) using 200 ms pulses, which were applied incrementally with an interval of 20 s. Finally, the potential returned to the holding potential.
Cells were measured 24–48 h after transfection. The cells were selected by K-Kv1.1 fluorescence. The cells were analyzed if their input resistance was more than 350 MΩ. The currents were recorded using an EPC-10 amplifier (HEKA Elektronik, Stuttgart, Germany).
[…] The toxins were dissolved in a complete medium.
The measured concentration dependence of current inhibition through the K-Kv1.1 channel by A-HgTx was analyzed with the following equation:Irel(L) = 100/(1 + (IC50/L)^h) (1) where Irel is a decrease in current (%), L is the concentration of A-HgTx, IC50 is the concentration of A-HgTx that induces a 50% decrease in current, and h is the Hill coefficient.

Kv1.3 (Homo sapiens) = Kv1.3 (Homo sapiens) (UniProt P22001); conditions: cited from earlier work
Sequence of Kv1.3 (Homo sapiens) (P22001 whole entry): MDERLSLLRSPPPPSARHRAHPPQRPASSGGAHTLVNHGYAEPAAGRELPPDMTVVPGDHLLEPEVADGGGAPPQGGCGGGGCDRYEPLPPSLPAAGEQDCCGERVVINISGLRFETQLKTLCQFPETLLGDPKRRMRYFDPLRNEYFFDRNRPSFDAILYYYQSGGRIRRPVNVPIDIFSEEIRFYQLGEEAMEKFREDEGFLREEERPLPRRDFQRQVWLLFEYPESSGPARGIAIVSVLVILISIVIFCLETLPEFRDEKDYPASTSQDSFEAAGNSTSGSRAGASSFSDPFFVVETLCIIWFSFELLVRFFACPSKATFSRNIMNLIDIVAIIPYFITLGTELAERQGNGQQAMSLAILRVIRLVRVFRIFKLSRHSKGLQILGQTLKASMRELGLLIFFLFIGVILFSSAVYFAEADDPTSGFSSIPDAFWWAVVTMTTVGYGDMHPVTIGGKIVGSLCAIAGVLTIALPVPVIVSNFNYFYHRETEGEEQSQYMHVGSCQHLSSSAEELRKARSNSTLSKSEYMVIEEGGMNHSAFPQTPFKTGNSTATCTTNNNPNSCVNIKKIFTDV

[3] = system: non-transfected Neuro2a cells; conditions: cited from earlier work
[4] = target: T3, Kv1.1 (K-Kv1.1, mKate2-tagged) (Homo sapiens, UniProt Q09470); experiment: competitive confocal fluorescence binding with A-HgTx, K+ buffer (open state)
T3 chain: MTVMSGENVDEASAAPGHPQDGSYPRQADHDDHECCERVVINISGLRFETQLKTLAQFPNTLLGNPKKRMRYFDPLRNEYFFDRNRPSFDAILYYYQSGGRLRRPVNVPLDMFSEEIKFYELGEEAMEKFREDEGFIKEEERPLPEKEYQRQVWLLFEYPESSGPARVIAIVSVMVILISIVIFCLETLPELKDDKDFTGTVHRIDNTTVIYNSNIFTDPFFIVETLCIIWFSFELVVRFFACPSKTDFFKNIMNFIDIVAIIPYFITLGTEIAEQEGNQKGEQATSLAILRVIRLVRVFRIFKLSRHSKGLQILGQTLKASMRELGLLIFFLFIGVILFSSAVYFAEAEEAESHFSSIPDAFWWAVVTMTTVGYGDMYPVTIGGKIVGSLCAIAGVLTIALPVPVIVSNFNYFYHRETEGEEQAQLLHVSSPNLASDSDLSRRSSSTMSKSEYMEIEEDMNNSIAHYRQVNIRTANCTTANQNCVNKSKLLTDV

[5] = target: T3, Kv1.1 (K-Kv1.1, mKate2-tagged); experiment: competitive confocal fluorescence binding with A-HgTx, complete medium
[6] = target: T3, Kv1.1 (K-Kv1.1, mKate2-tagged); experiment: confocal fluorescence binding on Neuro2a cells, complete medium
[7] = target: T3, Kv1.1 (K-Kv1.1, mKate2-tagged); experiment: confocal fluorescence binding on Neuro2a cells, K+ buffer (open state)
[8] = target: T3, Kv1.1 (K-Kv1.1, mKate2-tagged); experiment: confocal fluorescence binding on Neuro2a cells, Na+ buffer (closed state)

Molecule: CC[C@H](C)[C@@H]1NC(=O)[C@@H]2CSSC[C@@H]3NC(=O)[C@H](CCCCN)NC(=O)[C@H](CCCNC(=N)N)NC(=O)[C@H](CC(N)=O)NC(=O)[C@H](CCSC)NC(=O)[C@H](CSSC[C@H](NC(=O)[C@H](CO)NC(=O)[C@@H](NC(=O)[C@H](CC(N)=O)NC(=O)[C@@H](NC(=O)[C@@H]4CCCN4C(=O)[C@@H](NC(=O)CN)C(C)C)[C@@H](C)CC)C(C)C)C(=O)N[C@@H]([C@@H](C)O)C(=O)NCC(=O)N[C@@H](CO)C(=O)N4CCC[C@H]4C(=O)N[C@@H](CCC(N)=O)C(=O)N2)NC(=O)[C@H](CCCCN)NC(=O)CNC(=O)[C@H](Cc2ccccc2)NC(=O)[C@H](CCCNC(=N)N)NC(=O)[C@H](CCSC)NC(=O)CNC(=O)[C@H](C)NC(=O)[C@H](CC(=O)O)NC(=O)[C@H](CCCCN)NC(=O)[C@H](CSSC[C@@H](C(=O)N[C@H](C(=O)N2CCC[C@H]2C(=O)N[C@@H](CCCCN)C(=O)O)[C@@H](C)O)NC(=O)[C@H](Cc2c[nH]cn2)NC3=O)NC(=O)[C@@H]2CCCN2C(=O)[C@H](CCCCN)NC1=O [AgTx2, agitoxin 2]
- Kd [1]: 1.5 ± 0.7 nM

Molecule: CC[C@H](C)[C@@H]1NC(=O)CNC(=O)[C@H](Cc2ccccc2)NC(=O)[C@H](CCC(N)=O)NC(=O)[C@H](C)NC(=O)[C@H](CCCCN)NC(=O)[C@@H]2CSSC[C@@H](C(=O)N[C@@H](Cc3ccc(O)cc3)C(=O)N3CCC[C@H]3C(=O)N[C@@H](Cc3c[nH]cn3)C(=O)O)NC(=O)[C@H](CCCCN)NC(=O)[C@@H]3CSSC[C@H](NC(=O)[C@H](CCC(N)=O)NC(=O)[C@H](CCCCN)NC(=O)[C@@H]4CCCN4C(=O)[C@H](CO)NC(=O)[C@H]([C@@H](C)O)NC(=O)[C@@H](NC(=O)[C@H](CCCCN)NC(=O)[C@@H](NC(=O)[C@H](CC(=O)O)NC(=O)[C@@H](NC(=O)[C@@H](NC(=O)[C@@H](N)[C@@H](C)O)C(C)C)[C@@H](C)CC)C(C)C)CSSC[C@H](NC(=O)[C@H](CCCCN)NC(=O)[C@H](C)NC(=O)CNC(=O)[C@H](C)NC(=O)[C@H](CCCNC(=N)N)NC1=O)C(=O)N[C@@H](CCSC)C(=O)N[C@@H](CC(N)=O)C(=O)NCC(=O)N[C@@H](CCCCN)C(=O)N3)C(=O)N[C@@H](CC(C)C)C(=O)N1CCC[C@H]1C(=O)N1CCC[C@H]1C(=O)N2 [HgTx1, hongotoxin 1] (H-TVIDVKCTSPKQCLPPCKAQFGIRAGAKCMNGKCKCYPH-OH; disulfide 7-29, 13-34, 17-36)
- decrease in the peak current amplitude [2]: 73 ± 8%

Molecule: CC[C@H](C)[C@H](NC(=O)[C@H](CCC(=O)O)NC(=O)[C@@H](NC(=O)CN)C(C)C)C(=O)N[C@@H](CC(N)=O)C(=O)N[C@H](C(=O)N[C@@H](CCCCN)C(=O)N[C@H]1CSSC[C@@H]2NC(=O)[C@H](CCCCN)NC(=O)CNC(=O)[C@H](Cc3ccccc3)NC(=O)[C@H](CCCNC(=N)N)NC(=O)[C@H](CCSC)NC(=O)CNC(=O)[C@H](C)NC(=O)[C@H](CC(=O)O)NC(=O)[C@H](CCCCN)NC(=O)[C@@H]3CSSC[C@@H](C(=O)N[C@H](C(=O)N4CCC[C@H]4C(=O)N[C@@H](CCCCN)C(=O)O)[C@@H](C)O)NC(=O)[C@H](Cc4c[nH]cn4)NC(=O)[C@H](CSSC[C@H](NC(=O)[C@H](CCC(N)=O)NC(=O)[C@@H]4CCCN4C(=O)[C@H](CO)NC(=O)CNC(=O)[C@H](CO)NC1=O)C(=O)N[C@@H](CC(C)C)C(=O)N[C@@H](CCCCN)C(=O)N1CCC[C@H]1C(=O)N3)NC(=O)[C@H](CCCCN)NC(=O)[C@H](CCCNC(=N)N)NC(=O)[C@H](CC(N)=O)NC(=O)[C@H](CCSC)NC2=O)C(C)C [KTx1, kaliotoxin 1]
- Kd [1]: 0.12 ± 0.08 nM

Molecule: A-HgTx (Atto-labelled hongotoxin 1) (from UniProt P59847)
- Kd (Kv1.3 (Homo sapiens)): 0.3 nM

Molecule: charybdotoxin [ChTx]
- effect of channel state (closed or open) on affinity of K-Kv1.1 for the peptide ([1]; A-HgTx (2 nM) displacement compared in complete medium, Na+ and K+ buffers): does not affect the affinity
- effect on binding of A-HgTx (2 nM) to K-Kv1.1 ([1]; ChTx 100 nM): does not affect the binding of A-HgTx to K-Kv1.1
- sensitivity of background currents to the blocker [3]: insensitive

B1: Ce1 (peptide)
chain: TVINVKCTSPKQCLKPCKDLYGPHAGAKCMNGKCKCYNN
- Kd [4]: 18 nM
- Kd [5]: 11 nM

B2: hongotoxin 1 (HgTx1) (peptide)
chain: TVIDVKCTSPKQCLPPCKAQFGIRAGAKCMNGKCKCYPH
- Kd [4]: 0.05 nM
- Kd [5]: 0.03 nM

B3: margatoxin (MgTx) (peptide)
chain: TIINVKCTSPKQCLPPCKAQFGQSAGAKCMNGKCKCYPH
- Kd [4]: 0.5 nM
- Kd [5]: 0.3 nM

B4: Atto 488-hongotoxin 1 (A-HgTx) (peptide)
chain: TVIDVKCTSPKQCLPPCKAQFGIRAGAKCMNGKCKCYPH
- Kd [6]: 0.7 nM
- Kd [7]: 0.8 nM
- Kd [8]: 0.9 nM
